# Assay results: PMC4800742
# T1: RanGAP1 (human, UniProt P46060 1-587)
# T1 sequence: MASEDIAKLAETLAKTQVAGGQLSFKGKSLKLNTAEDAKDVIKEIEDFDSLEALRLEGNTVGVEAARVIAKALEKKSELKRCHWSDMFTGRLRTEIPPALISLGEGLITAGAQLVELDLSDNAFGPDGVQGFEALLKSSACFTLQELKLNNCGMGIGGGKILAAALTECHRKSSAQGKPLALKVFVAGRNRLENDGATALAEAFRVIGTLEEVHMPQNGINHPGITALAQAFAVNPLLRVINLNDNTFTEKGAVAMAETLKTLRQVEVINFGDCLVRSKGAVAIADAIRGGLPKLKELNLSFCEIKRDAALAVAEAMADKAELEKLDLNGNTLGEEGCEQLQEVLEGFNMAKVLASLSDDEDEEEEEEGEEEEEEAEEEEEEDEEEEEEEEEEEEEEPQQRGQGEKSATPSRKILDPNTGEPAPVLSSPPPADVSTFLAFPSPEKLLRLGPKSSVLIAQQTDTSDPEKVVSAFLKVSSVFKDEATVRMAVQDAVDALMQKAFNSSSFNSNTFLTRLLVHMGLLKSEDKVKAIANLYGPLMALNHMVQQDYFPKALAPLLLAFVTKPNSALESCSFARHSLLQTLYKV
# Target: T1, RanGAP1
# Assay: EMSA
binder,measurement,value
GGGGCCGGGGCCGGGGCCGGGGCC (structured_RNA) [(G4C2)4 G-quadruplex],apparent K (half saturation),162 nM
